Experiment: soluble on expression in E. coli; label from the status in PepcDB or PDB records

Sequence	soluble on expression in E. coli
MGSDKIHHHHHHMIKRRYMRTRQLKPGMIIDQVIKDPTGRNLVVQGSAIDDYIISSLLKLGIMSVYIREGNADPDDPDAILSPKAAAMVKQLRTDDRSKVTLSDSVRQRVSTGVQYIFNNTNSEELTQATNQIADSLMEAINENDAIAVDISSLKTSDEYTFKHSVDVATISMILAKQMKLPDNEIHDIGVSGLLHDIGKTMIPNEILNKPGRLTDDEFNIMKKHSVYGYNMLKDRKDLNNSILMGVLQHHERIDGTGYPLGFDAPKICQFAKILSVADVYDALVTKRPYKDALSQRDAVEMLMSMTNQLDIGVMRAFMSSMILYPVDSIVQLSNGEKARVVKNSEYYILRPTVVGVDSGRVYNLGNDLKCASIIIL	not soluble
MGSDKIHHHHHHMTNTFSFDWAIAPETPDTFFAEYFEKKPMLIKRGQPGYFSDLLSYGEIDRVVSTMGLHVPEINVTRADGNITPADFAYETGQIDPVRVNQLHADGATVILSGLHERLPALARYCRAMEAAMSARVQTNIYMTPPGNQGFNPHYDGHDVLVLQVAGTKEWRIYGTPVELPLADQAFERGMDVGEEAQRFVLEPGDAVYIPRGMAHDAVATDETSLHITTGLMFRTWADALAEAVIAKAHREPSLRRALPPGFANNGVDLDDYKDTFAELIELVGDAHVGKLLSGFREEFLTARVPRVEGQMAQLAKLDGLTMDSRMGAHPHIVFGIHDVPNEDQVCLVAQGAEIILPAHARDAMEFCITTADFRLGDMEGDLDDAGKMVLAKRFVREGLMRVL	not soluble
MLKQLLEQATSNNGKARLYAFENTVELTNLIPPTVSYESGGNTLIVGPTAIIESAAAQLSQMNSLTLLSTDGEKGTNPELYYANSVQVSGFLGTFEVLIENHGSTNNLAKVAINSDCFDIVLDLCLNSCMSEEVPVPGYYPVGRGYPKLAEALEEIPTLMGTFDKPKFFRLDTDLCAHSSRGVKGCERCVDACPAGALSSEGSDKTGHRIEINPYLCQGVGTCATACPTEAIHYALPNPEDTQKFIERTLANYEQAGGLDPIVLICSSRHESYNVMALKALPDNVIPIVVEELPSVGIDTWFAALVNGATQVLFAASRFMPQTIIRVLNSEVGIAQELLDQLGIAKETIDILYLESLREGAPTLCTESFDLALGDLQGNKRQRLFTALDALSASRIPVENIVELPANAPYGTVSCESKDC	not soluble
MGHHHHHHSHMANSMANSMNNRTRLALIICNTEFDHLPPRNGADFDITGMKELLEGLDYSVDVEENLTARDMESALRAFATRPEHKSSDSTFLVLMSHGILEGICGTVHDEKKPDVLLYDTIFQIFNNRNCLSLKDKPKVIIVQACRGANRGELWVRDSPASLEVASSQSSENLEEDAVYKTHVEKDFIAFCSSTPHNVSWRDSTMGSIFITQLITCFQKYSWCCHLEEVFRKVQQSFETPRAKAQMPTIERLSMTRYFYLFPGN	not soluble
MQIQQNNSLIYNTLTKKLSSFIPIKSTRRKLRNHIQYKLEHPKVTNYLSNNYINPFLEGKIPHFDFEKKHYFKNDKIIWQFWYQGKNQASPMIQQCFNSVQSQMKDDYTIIILDKDNIKDYLDFPPFVIEKLENNFFGEKTITFFSDLLRVCLLATYGGIWCDASIFLSSKIPSELCDKDFFTFERSKIKPSKEKLKKFIKSGYFSYGYFNWNDDFKVKMLSSFMIAKTNNTFIQTLKDILMNYWKNEQSSENHYYFILHIIFELLKEHGFVNDIYKNMSDIECHLLQFSAKEKFNSTLWEEIQKQSFLHKLTHFKSIKKDSMIDKIILQSLEHHHHHH	soluble
MMKNFVCTTCGVQYAASVEEPVSCHICDEERQYVNPKGQSWTTLENLQTDDTYKNEIIKEENGLYSITTKPGFAIGQTAFVVKTESYRLLWDCITYLDETTITKIKELGGLDAIALSHPHYYSTQVEWAETFDVPIYIHEDDKEWVMRPSSRIIYWSGESLQLADGITVHRLGGHFSGGSVLHWEEGNDGKGILLTGDIIQVVADERWVSFMYSYPNLIPLPARKVEEMVNRVKPLQFNRLYNAFHRVVKENANEAVERSAERYIKAIEGKLFHT	not soluble
MEKIIEVNSVSKTFKHKKAVNNVSFHVNKGEIVALLGPNGAGKTTTMSMMLGLKDPTEGTVSIFGKNPKHRDVRNSLGAMLQEVSVIDSITVEEAIELFRSYYTNPVAKETLLQLSNLELERKQRCEKLSGGQKRRLNFALALAGNPDLLFLDEPTVGMDITSRRTFWETIRKLVSEGKTIILTTHYLEEADALADRILLFVNGKIIADGTPDEMKATISRKTISFYSKESIPAKLLKELPNVTEVQAKEGHFTLTTEDTDATLKAIYQKNLPVTDVSVERGSLDEAFEQFVANQKEEIA	not soluble
SASSQGKNELKLADWMATLPESMHSIPLTNLAIPGSHDSFSFYIDEASPVGPEQPETVQNFVSVFGTVAKKLMRKWLATQTMNFTGQLGAGIRYFDLRISTKPRDPDNELYFAHGLFSAKVNEGLEEINAFLTDHHKEVVFLDFNHFYGMQKYHHEKLVQMLKDIYGNKMCPAIFAQEVSLKYLWEKDYQVLVFYHSPVALEVPFLWPGQMMPAPWANTTDPEKLIQFLQASITERRKKGSFFISQVVLTPKASTVVKGVASGLRETITERALPAMMQWVRTQKPGESGINIVTADFVELGDFISTVIKLNYVFDEGEANT	soluble
MGSDKIHHHHHHMSRDAPIKADKDYSQILKEEFPKIDSLAQNDCNSALDQLLVLEKKTRQASDLASSKEVLAKIVDLLASRNKWDDLNEQLTLLSKKHGQLKLSIQYMIQKVMEYLKSSKSLDLNTRISVIETIRVVTENKIFVEVERARVTKDLVEIKKEEGKIDEAADILCELQVETYGSMEMSEKIQFILEQMELSILKGDYSQATVLSRKILKKTFKNPKYESLKLEYYNLLVKISLHKREYLEVAQYLQEIYQTDAIKSDEAKWKPVLSHIVYFLVLSPYGNLQNDLIHKIQNDNNLKKLESQESLVKLFTTNELMRWPIVQKTYEPVLNEDDLAFGGEANKHHWEDLQKRVIEHNLRVISEYYSRITLLRLNELLDLTESQTETYISDLVNQGIIYAKVNRPAKIVNFEKPKNSSQLLNEWSHNVDELLEHIETIGHLITKEEIMHGLQAK	not soluble
MAHHHHHHMSVPLRRTVLHSLHLSRKARMGPFAGYDMPIHYQPGVVQEHLHTRQAAGLFDVSHVGFFEVWGADRHKFFEWVTPSGVTELQDGQSALTLFMNESGGVKDDCIVSKYSDHLLAVINAGCKGKIITHLKDRLAEFKGDATLVELDRAMVSLQGPKAASVMAPFVEELDRVKFMWGRRSVCVKGIDITLTRCSYSGEDGFDIIVPIQDAVQFVELLLQNPDVQLAGLGARDSLRTEAGLCLYSHELSEEVNPVAARLMWCIPKRRMAEGGFIGHERLQTFVQRAKELVPRLRMGILSVARGPVARTGMPILVGDVVVGEVTSGVPSPTLSRNIAIGYIDRAKARAGETVELEVRGKRLPGEVTLPRFVPQRYYKG	not soluble
MADAEGDPLQAFWTQVVRLRDLLKFDFYFADSAAFHQNVAEEMSWHADWEQQVRAGRDGIETLMRAKRPLLADAMLRPYFEAYTIVADVLRDAPAEIAEKDLTKLALGVGQQYVAQGRVRNNESVSALLFATARQVAADQGLLEHGPDLMEQRRAFRDELRGILRDLDTVDRYARELFAARERERRTKRDEAVLEHHHHHH	not soluble
MAKLSGSIDVPLPPEEAWMHASDLTRYREWLTIHKVWRSKLPEVLEKGTVVESYVEVKGMPNRIKWTIVRYKPPEGMTLNGDGVGGVKVKLIAKVAPKEHGSVVSFDVHLGGPALLGPIGMIVAAALRADIRESLQNFVTVFAG	soluble
MSLTDEQFNPQDEEIEIEAIGVEVSCQPIELYKVLKIANAVSGGGEAKHVISEGYVFVNGDVETRKRCKVFDGDLIEFNQEFYLVICDAPVTEPESFDTQPELASSHKPTKTQKKSSANTSAKSKPSKNNKTVSGQKKAKNDKKSPQSDSKSPSGRSAIRFFEGGSHHHHHH	soluble
MGSDKIHHHHHHMTRRPPLINRLGATPVHPERDPAHPLVVFGDNRFCAGELLDVQKMAGPHMHSQIELNFVLEGSMTYWFDGRELTISEGRLCLFWGMIPHQVIDRREGTRFICLYVPMSVFLGLASLSQFRDSVFRGAVIEALHLRAWDREIFLRWRDELLGGDEGDIEIVRSELTARLMRIERDGWRDLREQGSALASLGQRDAGWMLHVEKMLRFIGEHAPDTISAEDVGRAAGLHPNYAMSLFKRAVGTTINQAIIRHRLDTAQSLLISSDMPITEVAYESGFGSLSTFYEAFQRRFMEKPVQYRRRMRAKGTAAQSIA	not soluble
MGSDKIHHHHHHMTVAIDRTKGDQSTPGNIIRGEGYALIRNSEATPDPDKVIHIPCADSFSVIVQLRDFNSHRLWNGNKLVFDGGHPRKSISIAYLGDEIKCQHRTTYDNVRFMLPRASIKEFLYEEGQRASAEPERIIGVDDPVVYHLALALLPSFARAGERNELFIEQVMLALLTHVQDRFASTQVPVCTGKGLAPWQLRRAKELIAGHLAEGVSVARLAEECGLSRSYFTKAFKCSTGVSPHEWLMRMRVDRAKELMLGSDEPLSQIGVACGFSDQPHFSRIFLRLAGASPSTWRRVKRQRTDAAL	not soluble
INYRCPKRVITLINNIRKGDDQNVQVPKEDAIDGFVRLFIVDSNTTDKLELENKIRFQMAMLTHDEDWNIAEEVKTLTLEHDMAASRGGFDEFLLPLSSVSSLRDAALNGTSKNINFITSTLLPFIDAVEKDDSFEVARIIKSGSLLISDSNQSFLLNPIGTLKDIDSNVVEFKKILVNGKVTLHNVLSTIQKFELLSLPDELLVYLSDIEQGEPNEPESDTKLLSDVDKAWGLALNSSIGHVKNYAKYVNETLGYATHQGVKGLEYKRVMAVLDDKFKGFLFDYEKLFGAKDLTKKDIENEDLGKDSALSRTRRLFYVICSRAEQSLAVVAYSNDPIAIEKTAIESEWFSKDEIVLI	not soluble
SLTLNDKYPFTDEDQAIINSYKAVVDGVSALIGEHCEIVLHSLENIEHSAICIANGHNTNRQVGSPITDLALRSLRNMQSESVSKPYFTRAKGSVLMKSVTIAIRNKTQRIIGLLCININLDVPVSQFLQCFMLTEHTNETSSVNFANSVEDLVAQTIEKTIEEVNADRAVANNTKNRQIVLSLYEKGIFDIKDAINLVAERLDISRHTVYLYIRQIKQEQE	soluble
MELTKIRVKTIGYYHRDSEMKATPGRLPKNLNLACLTPMQNKEKFPNMNIEVLDSGKGELMMESLLDYISQTSCLQDEQPGFVTNKQLLVALTRTGSLAIHLFRWNGTTYLLKFNEDESVNQNFGAAFEHHCTKTDDPINENEPVRKAVMIAEIPRGKGVHSVLYSGQIDAVDNEVNRMHYELKVLSGGLTEHFWKTKSCMFYWQAVFGKADVLIIGSRTGKCPNDPKTTWPKEWPPFSVYQVETLEQNQIPESAAEECLKKVLMDPAPEWKPLEGEESVCYFLDLVEEYVKNNGDCYVFTRSDENPDWIVKEDEESVAEFRDVVRHYLAS	not soluble
MGSLKIYPSKLSGDVKIPPSKSMAHRAVICSSLSNGKSRISNIDFSDDIIATIRAMTSLGAIIEKKEDILEISGIFSKEGILNRENQLNQPKLTIDCNESGSTLRFLVPISLAFDGVKRFIGRGNLGKRPLDTYYEIFDRQNIKYSYKENQLDLIISGKLKPDEFRVKGNISSQFITGLLFILPTLESDSKIIITTELESKGYLDLTLSTIKDFGVEIINNNYKEFIIKGNQTYKARDYKVEGDYSQGAFYLSADAIGEDISILDLKEDSLQGDSEVVEILSRMGMEILREGNKIKGITNGLNGTLIDASQCPDIIPVLSVVASLSIGKTTIINAGRLRIKECDRLHAINVELSKLGANIEEKEDSLIIEGVSKLNGGVEVWSHKDHRIAMTLAIASCRCDKPIILKDFECVSKSYPHFFKDFKMLGGRIDEWNMGK	not soluble
MSLNIKDEHIDSVCSLLDQLVGNVSFKNLFTGYGLFHKEETMFAIWQNKKLYLRGEGVLAIQLTKLGCEPFTTNELNKRFVLSQYYALSDQILRSNRLCRKLIILSIKQILEQKLECTLRKLNRLKDLPNLTIKHERALIKVGITNVAMLREIGAENALVELKKSGSGATLDFYWKLVCALQNKNSQMLSQAEKERLLKKLNEVWRKNGLKGYRKLDDEEGHHHHHH	soluble

Source: the DeepSol protein solubility set
